Laboratory results reported in article PMC7319273.

Assays:
[1] = molecular target: SARS-CoV-2 Spike protein extracellular domain (S-ECD), as used in ELISA and BLI (SARS-CoV-2) (UniProt P0DTC2); experiment: BLI
[2] = molecular target: SARS-CoV-2 Spike protein extracellular domain (S-ECD), as used in ELISA and BLI (SARS-CoV-2) (UniProt P0DTC2)

4A8 (human monoclonal antibody), sequence (VH): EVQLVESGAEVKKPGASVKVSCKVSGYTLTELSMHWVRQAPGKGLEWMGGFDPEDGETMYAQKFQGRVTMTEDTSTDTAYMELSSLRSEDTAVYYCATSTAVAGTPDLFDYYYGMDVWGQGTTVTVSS
4A8 (human monoclonal antibody), sequence (VL): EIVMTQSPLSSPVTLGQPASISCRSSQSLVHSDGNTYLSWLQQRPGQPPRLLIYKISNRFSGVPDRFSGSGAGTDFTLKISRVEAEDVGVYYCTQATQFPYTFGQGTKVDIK

Q: With 4A8 (human monoclonal antibody) as the substance, how does the Kd [1] read?
A: < 2.14 nM

Q: And the neutralization of authentic SARS-CoV-2 in Vero-E6 cells, EC50 [2]?
A: 0.61 µg/mL
